Data as given in the nanobody polyreactivity screen of Harvey et al. (2022).

Experiment: yeast display, Sf9 membrane polyspecificity reagent, FACS + sequencing; frameworks hold sequencing errors
In short: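 Sorting gates, low and high (top ~1%), were placed on anti-HA fluorescence to track expression and on streptavidin fluorescence to track reagent binding. A clone's polyreactivity label is taken from the gate it came out of. The reagent was 10% biotinylated, detergent-solubilized Sf9 membrane, applied for 1 hour at 4 °C to galactose-induced yeast display cells.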

| Sequence | polyreactivity (PSR sort gate) |
| --- | --- |
| QVQLVESGGGLVQAGGSLRLSCAASGFTFRVNAMGWYRQAPGKERELVAAISSGGSTNYADSVKGRFTISRDNAKNTVYLQMNSLKPEDTAVYYCAKRFKYIYYWGQGTQVTVSS | high polyreactivity |
| QVQLVESGGGLVQAGGSLRLSCAASGFTFRVNAMGWYRQAPGKERELVAAISWTGGSTYYADSVKGRFTISRDNAKNTVYLQMNSLKPEDTAVYYCATRFGGRYNEFGFWGQGTQVTVSS | low polyreactivity |
| QVQLVESGGGLVQAGGSLRLSCAASGFTFRVYAMGWNRQAPGKEREFVASITWGGGRPYYADSVKGRFTISRDNAKNTVYLQMNSLKPEDTAVYYCAAYGRLDSYVSYYYWGQGTQVTVSS | high polyreactivity |
| QVQLVESGGGLVQAGGSLRLSCAASGFTFRVYAMGWYRQPPGKERELVAVISGTGGRTYYADSVKGRFTISRDNAKNTVYLQMNSLKPEDTAVYYCAAVGLTPKAIWTSDYWGQGTQVTVSS | high polyreactivity |
| QVQLVESGGGLVQAGGSLRLSCAASGFTFRWYAMGWYRQAPGKERELVAAITSDDNTYYADSVKGRFTISRDNAKNTVYLQMNSLKPEDTAVYYCAAEYADYWTYNMGYWGQGTQVTVSS | low polyreactivity |
| QVQLVESGGGLVQAGGSLRLSCAASGFTFRWYAMGWYRQAPGKERELVAAITSRGGTTYYADSVKGRFTISRDNAKNTVYLQMNSLKPEDTAVYYCAALNSGYIGMDYWGQGTQVTVSS | high polyreactivity |
| QVQLVESGGGLVQAGGSLRLSCAASGFTFRYYAMGWSRQDPGKERELVAAITNVGSTNYADSVKGRFTISRDNAKYTVYLLMNSLKPEDTAVYYCNAPRTPWRRSYDYWGQGTQVTVSW | high polyreactivity |
| QVQLVESGGGLVQAGGSLRLSCAASGFTFRYYAMGWYRQAPGKEREFVAAITYNGVSTYYADSVKGRFTISRDNAKNTVYLQMNSLKPEDTAVYYCAADVLLSRSNTPQRPSRLYYWGQGTQVTVSS | high polyreactivity |
| QVQLVESGGGLVQAGGSLRLSCAASGFTFRYYAMGWYRQAPGKERELLAAISWSGGSTYYADSVKGRFTISRDNAKNTVYLQMNSLNPEDTAVYYCAADSVFGGRGRYQASRYYYWGQGPQVTVSS | high polyreactivity |
| QVQLVESGGGLVQAGGSLRLSCAASGFTFRYYAMGWYRQAPGKERELVAAISRSGGSTYYADSVKGRFTISRDNAKNTVYLQMNSLKPEDTAVYYCAARSHGWTPHGYDYWGQGTQVTVSS | high polyreactivity |
| QVQLVESGGGLVQAGGSLRLSCAASGFTFRYYAMGWYRQAPGKERELVAAISYRGGRTYYADSVKGRFTISRDNAKNTVYLQMNSLKPEDTAVYYCAVDYTLADVIYDYWGQGTQVTVSS | high polyreactivity |
| QVQLVESGGGLVQAGGSLRLSCAASGFTFRYYAMGWYRQAPGKERELVAAITGSGGRTYYADSVKGRFTISRDNAKNTVYLQMNSLKPEDTAVYYCARDVDPRGRYYWGQGTQVTVSS | high polyreactivity |
| QVQLVESGGGLVQAGGSLRLSCAASGFTFRYYAMGWYRQAPGKERELVAAITSGDSTYYADSVKGRFTISRDNAKNTVYLQMNSLKPEDTAVYYCNKDRRPTADFGYWGQGTQVTVSS | high polyreactivity |
| QVQLVESGGGLVQAGGSLRLSCAASGFTFRYYAMGWYRQAPGKERELVADITWSGTRTYYADSVKGRFTISRDNAKNTVYLQMNSLKPEDTAVYYCAKVTWVRGSYYRNKSSIYDYWGQGTQVTVSS | high polyreactivity |
| QVQLVESGGGLVQAGGSLRLSCAASGFTFRYYAMGWYRQAPGKERELVASINWSGGSTYYADSVKGRFTISRDNAKNTVYLQMNSLKPEDTAVYYCAADSIWGHYFARFDYWGQGTQVTVSS | high polyreactivity |
| QVQLVESGGGLVQAGGSLRLSCAASGFTFRYYAMGWYRQAPGKERELVASTYYADYVKGRFTISRDNAKNTVYLQMNSLKPEDTAVYYCNVDGTSSSPFVQKHKEMDYWGQGTQVTVSS | low polyreactivity |
| QVQLVESGGGLVQAGGSLRLSCAASGFTFRYYAMGWYRQAPGKERELVATIRTSGGSTYYADSVKGRFTISRDNAKNTVYLQMNSLKPEDTAVYYCAVRGRNWQHTRFNYWGQGTQVTVSS | high polyreactivity |
